# IntAct's records for PubMed 11230129
# B1: CBL-interacting serine/threonine-protein kinase 1 (Arabidopsis thaliana (Mouse-ear cress)), Q8RWC9 (parent)
# chain: MVRRQEEEKKAEKGMRLGKYELGRTLGEGNFGKVKFAKDTVSGHSFAVKIIDKSRIADLNFSLQIKREIRTLKMLKHPHIVRLHEVLASKTKINMVMELVTGGELFDRIVSNGKLTETDGRKMFQQLIDGISYCHSKGVFHRDLKLENVLLDAKGHIKITDFGLSALPQHFRDDGLLHTTCGSPNYVAPEVLANRGYDGAASDIWSCGVILYVILTGCLPFDDRNLAVLYQKICKGDPPIPRWLSPGARTMIKRMLDPNPVTRITVVGIKASEWFKLEYIPSIPDDDDEEEVDTDDDAFSIQELGSEEGKGSDSPTIINAFQLIGMSSFLDLSGFFEQENVSERRIRFTSNSSAKDLLEKIETAVTEMGFSVQKKHAKLRVKQEERNQKGQVGLSVTAEVFEIKPSLNVVELRKSYGDSCLYRQLYERLLKDVGTSSPEQEIVT
# Variants of: B1
# Conditions: with cnbl2_arath CBL2, Q8LAS7
row,effect of a mutation on the interaction,Variant
1,decreasing interaction,MVRRQEEEKKAEKGMRLGKYELGRTLGEGNFGKVKFAKDTVSGHSFAVKIIDKSRIADLNFSLQIKREIRTLKMLKHPHIVRLHEVLASKTKINMVMELVTGGELFDRIVSNGKLTETDGRKMFQQLIDGISYCHSKGVFHRDLKLENVLLDAKGHIKITDFGLSALPQHFRDDGLLHTTCGSPNYVAPEVLANRGYDGAASDIWSCGVILYVILTGCLPFDDRNLAVLYQKICKGDPPIPRWLSPGARTMIKRMLDPNPVTRITVVGIKASEWFKLEYIPSIPDDDDEEEVDTDDDAFSIQELGSEEGKGSDSPTIINAFQLIGMLSFLDLSGFFEQENVSERRIRFTSNSSAKDLLEKIETAVTEMGFSVQKKHAKLRVKQEERNQKGQVGLSVTAEVFEIKPSLNVVELRKSYGDSCLYRQLYERLLKDVGTSSPEQEIVT [S327L]
2,disrupting interaction,MVRRQEEEKKAEKGMRLGKYELGRTLGEGNFGKVKFAKDTVSGHSFAVKIIDKSRIADLNFSLQIKREIRTLKMLKHPHIVRLHEVLASKTKINMVMELVTGGELFDRIVSNGKLTETDGRKMFQQLIDGISYCHSKGVFHRDLKLENVLLDAKGHIKITDFGLSALPQHFRDDGLLHTTCGSPNYVAPEVLANRGYDGAASDIWSCGVILYVILTGCLPFDDRNLAVLYQKICKGDPPIPRWLSPGARTMIKRMLDPNPVTRITVVGIKASEWFKLEYIPSIPDDDDEEEVDTDDDAFSIQELGSEEGKGSDSPTIINAFQLIGMSSFLDLSGPFEQENVSERRIRFTSNSSAKDLLEKIETAVTEMGFSVQKKHAKLRVKQEERNQKGQVGLSVTAEVFEIKPSLNVVELRKSYGDSCLYRQLYERLLKDVGTSSPEQEIVT [F335P]
3,disrupting interaction,MVRRQEEEKKAEKGMRLGKYELGRTLGEGNFGKVKFAKDTVSGHSFAVKIIDKSRIADLNFSLQIKREIRTLKMLKHPHIVRLHEVLASKTKINMVMELVTGGELFDRIVSNGKLTETDGRKMFQQLIDGISYCHSKGVFHRDLKLENVLLDAKGHIKITDFGLSALPQHFRDDGLLHTTCGSPNYVAPEVLANRGYDGAASDIWSCGVILYVILTGCLPFDDRNLAVLYQKICKGDPPIPRWLSPGARTMIKRMLDPNPVTRITVVGIKASEWFKLEYIPSIPDDDDEEEVDTDDDAFSIQELGSEEGKGSDSPTIINPFQLIGMSSFLDLSGFFEQENVSERRIRFTSNSSAKDLLEKIETAVTEMGFSVQKKHAKLRVKQEERNQKGQVGLSVTAEVFEIKPSLNVVELRKSYGDSCLYRQLYERLLKDVGTSSPEQEIVT [A320P]
4,disrupting interaction,MVRRQEEEKKAEKGMRLGKYELGRTLGEGNFGKVKFAKDTVSGHSFAVKIIDKSRIADLNFSLQIKREIRTLKMLKHPHIVRLHEVLASKTKINMVMELVTGGELFDRIVSNGKLTETDGRKMFQQLIDGISYCHSKGVFHRDLKLENVLLDAKGHIKITDFGLSALPQHFRDDGLLHTTCGSPNYVAPEVLANRGYDGAASDIWSCGVILYVILTGCLPFDDRNLAVLYQKICKGDPPIPRWLSPGARTMIKRMLDPNPVTRITVVGIKASEWFKLEYIPSIPDDDDEEEVDTDDDAFSIQELGSEEGKGSDSPTIINAFQLIGMSSFLDDSGFFEQENVSERRIRFTSNSSAKDLLEKIETAVTEMGFSVQKKHAKLRVKQEERNQKGQVGLSVTAEVFEIKPSLNVVELRKSYGDSCLYRQLYERLLKDVGTSSPEQEIVT [L332D]
5,decreasing interaction,MVRRQEEEKKAEKGMRLGKYELGRTLGEGNFGKVKFAKDTVSGHSFAVKIIDKSRIADLNFSLQIKREIRTLKMLKHPHIVRLHEVLASKTKINMVMELVTGGELFDRIVSNGKLTETDGRKMFQQLIDGISYCHSKGVFHRDLKLENVLLDAKGHIKITDFGLSALPQHFRDDGLLHTTCGSPNYVAPEVLANRGYDGAASDIWSCGVILYVILTGCLPFDDRNLAVLYQKICKGDPPIPRWLSPGARTMIKRMLDPNPVTRITVVGIKASEWFKLEYIPSIPDDDDEEEVDTDDDAFSIQELGSEEGKGSDSPTIINAFQLDGMSSFLDLSGFFEQENVSERRIRFTSNSSAKDLLEKIETAVTEMGFSVQKKHAKLRVKQEERNQKGQVGLSVTAEVFEIKPSLNVVELRKSYGDSCLYRQLYERLLKDVGTSSPEQEIVT [I324D]
6,decreasing interaction,MVRRQEEEKKAEKGMRLGKYELGRTLGEGNFGKVKFAKDTVSGHSFAVKIIDKSRIADLNFSLQIKREIRTLKMLKHPHIVRLHEVLASKTKINMVMELVTGGELFDRIVSNGKLTETDGRKMFQQLIDGISYCHSKGVFHRDLKLENVLLDAKGHIKITDFGLSALPQHFRDDGLLHTTCGSPNYVAPEVLANRGYDGAASDIWSCGVILYVILTGCLPFDDRNLAVLYQKICKGDPPIPRWLSPGARTMIKRMLDPNPVTRITVVGIKASEWFKLEYIPSIPDDDDEEEVDTDDDAFSIQELGSEEGKGSDSATIINAFQLIGMSSFLDLSGFFEQENVSERRIRFTSNSSAKDLLEKIETAVTEMGFSVQKKHAKLRVKQEERNQKGQVGLSVTAEVFEIKPSLNVVELRKSYGDSCLYRQLYERLLKDVGTSSPEQEIVT [P315A]
